Measured values taken from PMC8932546 (The Journal of Experimental Medicine, 2022).

B1: 10-1074 IgG (antibody, V domains shown)
VH: QVQLQESGPGLVKPSETLSVTCSVSGDSMNNYYWTWIRQSPGKGLEWIGYISDRESATYNPSLNSRVVISRDTSKNQLSLKLNSVTPADTAVYYCATARRGQRIYGVVSFGEFFYYYSMDVWGKGTTVTVSS
VL: LSVALGETARISCGRQALGSRAVQWYQHRPGQAPILLIYNNQDRPSGIPERFSGTPDINFGTRATLTISGVEAGDEADYYCHMWDSRSGFSWSFGGATRLTVL
B2: BG18 IgG (antibody, V domains shown)
VH: QVQLRESGPGLVKPSETLSLSCTVSQDSRPSDHSWTWVRQSPGKALEWIGDIHYNGATTYNPSLRSRVRIELDQSIPRFSLKMTSMTAADTGMYYCARNAIRIYGVVALGEWFHYGMDVWGQGTAVTVSS
VL: SSELTQPPSVSVSPGQTARITCSGAPLTSRFTYWYRQKPGQAPVLIISRSSQRSSGWSGRFSASWSGTTVTLTIRGVQADDEADYYCQSSDTSDSYKMFGGGTKLTVL
B3: 7-269 expressed as recombinant IgG (antibody, V domains shown)
VH: QMQLVESGGGVVQPGRSLRLSCAASRFDFNRFGMHWVRQAPGKGLEWVAYMSYDGGDRYYADSVKGRFTISRDNSKSTLHLQMDSLRPEDTAVYYCAKDDILGDCSTSHCYWGYYYQGMDVWGHGTTVTVSS
VL: EIVMTQSPDTLSVSPGERVTLSCRASQSVGSNLVWYQQKPGQSTRVLIYGASTRAATVPARFSGGGSGTEFTLTISSVQSEDFAVYYCYHYNNWPRGSFGQGTKLEIK

Biological target: YU2 gp120 (HIV-1 clade B, isolate YU2, UniProt P35961)
Experiment: ELISA

YU2 gp120, sequence (P35961 whole entry, looked up): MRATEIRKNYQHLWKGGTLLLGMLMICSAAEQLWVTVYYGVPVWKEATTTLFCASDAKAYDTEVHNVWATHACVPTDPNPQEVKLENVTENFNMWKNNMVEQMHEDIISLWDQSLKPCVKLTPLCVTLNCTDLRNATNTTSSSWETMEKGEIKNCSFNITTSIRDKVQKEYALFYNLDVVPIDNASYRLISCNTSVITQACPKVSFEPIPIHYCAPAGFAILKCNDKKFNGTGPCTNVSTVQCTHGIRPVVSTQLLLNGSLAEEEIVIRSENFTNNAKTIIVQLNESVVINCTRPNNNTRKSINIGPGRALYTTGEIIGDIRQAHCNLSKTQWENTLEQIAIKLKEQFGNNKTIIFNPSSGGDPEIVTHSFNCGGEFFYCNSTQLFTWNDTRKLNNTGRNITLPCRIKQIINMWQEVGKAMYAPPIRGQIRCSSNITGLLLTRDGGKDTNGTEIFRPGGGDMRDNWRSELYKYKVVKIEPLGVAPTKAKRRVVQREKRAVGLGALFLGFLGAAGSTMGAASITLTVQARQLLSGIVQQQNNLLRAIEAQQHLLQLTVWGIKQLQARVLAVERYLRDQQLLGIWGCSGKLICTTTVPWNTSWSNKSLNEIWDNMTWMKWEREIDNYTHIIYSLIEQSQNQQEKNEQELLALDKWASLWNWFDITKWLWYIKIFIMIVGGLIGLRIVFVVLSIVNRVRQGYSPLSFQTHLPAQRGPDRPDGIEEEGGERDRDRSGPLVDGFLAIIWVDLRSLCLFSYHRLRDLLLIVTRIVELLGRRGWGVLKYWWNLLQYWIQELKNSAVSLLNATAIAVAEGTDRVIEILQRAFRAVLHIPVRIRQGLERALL

**Q.** Does B1 bind?
**A.** Result: binds

**Q.** Does B2 bind?
**A.** Result: binds

**Q.** Does B3 bind?
**A.** Result: binds
